Laboratory results published in patent publication US20150147384A1, “Sustained Delivery of Molecules Using Peptide Surfactants and Uses Thereof” (Massachusetts Institute of Technology, priority 2012, published 2015).
Several values for one entry are separate records, joined by “and”; a condition that tells them apart may be missing. Equal entries are not always repeated. Entries after “also recorded” stand apart in the source; their conditions may differ. No end group written: not given here.

How the values were obtained:
[1] = AFM imaging of peptide nanovesicles on mica; assay type: physicochemical; details: for Vesicle diameter, AFM analysis: individual nanovesicles; for Vesicle diameter, AFM analysis / Beads diameter, AFM analysis (necklace-like formations): dry state on mica; for number of nanovesicles per necklace: AFM image analysis; for Clusters diameter, AFM analysis: nanovesicle clusters, dry state
Protocol: For the AFM experiments, 3 uL were removed from the peptide vesicle dispersions (20 mg/mL of peptides in PBS that has been filtered through 0.2 um filters) and deposited on a freshly cleaved mica surface (G250-2 mica sheets 2.5×2.5×0.015 cm; Agar Scientific Ltd, Essex, UK). The bare surface of mica is smooth (rms is about 0.4 nm). Before imaging, each sample was left on mica for 1 min, rinsed with 200 uL of water (Millipore), and dried in a nitrogen gas stream. Images were obtained immediately in air using a Veeco MultiMode NanoScope 3D Controller Scanning Probe Microscope (Digital Instruments, Santa Barbara, Calif.) operated in tapping mode. AFM imaging (512×512 pixels) was performed using soft silicon probes (FESP; nominal length lnom=225 um, width wnom=28 um, tip radius Rnom=8 nm, resonant frequency νnom=75 kHz, spring constant knom=2.8 N m^−1; Veeco Instruments SAS, Dourdan, France). Typical scanning parameters were tapping frequency 73 kHz, integral and proportional gains 0.2 and 0.4, respectively, set point 0.7-1.0 V, and scanning speed 1.0-1.5 Hz. The Nanoscope image processing software was used to obtain height patterns, cross sections, and MIS of the peptide nanovesicles. Images were collected from two different samples at random spot surface sampling (at least five areas).

[2] = Hydrophobic drug uptake and release (Nile red); assay type: physicochemical; details: for Nile red emission maxima: Nile red in peptide nanovesicles; for release kinetics of Nile red through peptide nanovesicles (in words): PBS pH 7.4, 20° C.; for retention of Nile red molecules (in words): compared to KA6-CONH2 and DA6-COOH vesicles
Protocol: The hydrophobic fluorescent probe Nile red was used as a probe molecule to study the peptide nanovesicle bilayer. […] The “thin film” method was used for the preparation of the dispersions. Briefly, 0.2 mg of the amphiphilic peptide was dissolved in ethanol and subsequently the organic solvent was removed under vacuum in a rotary evaporator. Then the produced thin film was rehydrated with 1 mL of PBS, pH 7.4 containing 3.14 uM Nile red. Prior to analysis the dispersions were bath sonicated for 30 minutes. All spectra were recorded at room temperature with excitation and emission slit widths set at 5 nm (RF-5301 PC Shimatzu spectrophotometer). The excitation wavelength was at 546 nm and the emission spectra were recorded from 550 to 700 nm.

[3] = Release of carboxyfluorescein (CF) through peptide vesicles; assay type: physicochemical; details: for CF retention / release (in words): PBS pH 7.4
Protocol: To determine whether the peptide vesicles can be used for drug delivery we measured the release kinetics of the hydrophilic fluorescent probe 5,6-carboxyfluorescein (CF) through the peptide bilayer assemblies. The peptide powder was added into the CF solution in PBS and the suspension was probe-sonicated for 10 min followed by equilibration for 1 hour. Encapsulated CF is strongly quenched and therefore, only the released CF contributes to the fluorescence intensity signal. Released CF was removed by centrifugation at 11,000 rpm for 25 min using Microcon YM-10 membrane tubes (10 kDa cut-off). Then the vesicles were re-suspended in PBS and incubated for 1 hour at 20° C. The newly released CF during incubation was collected by centrifugation through the Microcon membrane and the fluorescence intensity was measured. This process was repeated every 1 hour and a graph was created to show the release kinetics of CF as a function of time.

[4] = system: Caco-2 cell monolayers; assay: FITC-dextran 4.4 kDa permeability through Caco-2 monolayer; details: for Enhancement ratio (FITC-dextran): R=Papp(peptide)/Papp(control); for enhancement of FITC-dextran transport compared with the control: 1.0 mgmt peptide; for Papp of FITC-dextran 4.4 kDa: apical to basolateral
Protocol: Caco-2 cells were seeded at a density of 2×10^5 cells/cm^2 on 24-well 6.5 mm Transwell polyester membrane inserts (0.4 um pore size, Corning Costar, Cambridge, Mass.). The medium was changed every 2-3 days in both sides of the Transwell membrane. After 20 days the growth medium was replaced with 10 mM HBSS/HEPES buffer pH 7.4 and studies of the cell-monolayer integrity and permeability were performed.
For the permeability assay, we added in the apical side of the Transwell 1 mg/mL FITC-dextran MW 4.4 kDa (Sigma) in 10 mM HBSS/HEPES buffer pH 7.4 with and without 0.2 or 1.0 mg/mL of self-assembling peptides. At each time point, samples were withdrawn from the basorateral side and the amount of FITC-dextran was measured using a fluorescence 96-well plate reader. The excitation and emission wavelengths were 490 nm and 530 nm, respectively. Results were expressed as cumulative transepithelial transport of FITC-dextran as a function of time. All measurements were done in triplicates and expressed as mean±S.D. The apparent permeability coefficient was calculated according to Papp=(dQ/dt)/(dt)/(ACo) in cm/s, where dQ, is the cumulative amount of FITC-dextran in the basolateral side at time t, (dQ/dt) in pmol/s is the permeability rate, Co is the initial concentration of FITC-dextran in the apical side and A is the area of the monolayer. The enhancement ratio R equals to R=(Papp(peptide)/Papp(control)).

[5] = Critical micelle concentration (CMC) by Dynamic Light Scattering; assay type: physicochemical
Protocol: The CMC of the amphiphilic peptides was determined by Dynamic Light Scattering (DLS) experiments (PDDLS/Batch setup, Precision Detectors, Franklin, Mass.). Solutions of different peptide concentrations were prepared in PBS and were filtered through 0.4 urn pore size filters prior to measuring. Scattered light was detected at 90° and the number of photons reaching the avalanche photodiode was recorded. The solvent viscosity and the refractive index of the buffer were taken as 0.894 cP and 1.33, respectively, at […]. Data were acquired in triplicates and processed by the Precision Deconvolve program, […]

[6] = Microelectrophoretic mobility (ζ-potential) measurements; assay type: physicochemical; details: PBS pH 7.4, 20 mg/mL peptide
Protocol: To determine the ζ-potential of the peptide nanovesicle formulations we used a Nano ZetaSizer (Malvern Instrument, UK) equipped with an avalanche photodiode as detector and a 4 mW He—Ne laser operated at 633 nm. Data were acquired by laser Doppler velocimetry and phase analysis light scattering (PALS). The self-assembling peptides were dispersed in PBS at a concentration of 20 mg/mL, which is above their CMC, and equilibrated for 30 min at 25° C. prior to detection. Microelectrophoretic data were obtained using the Henry-Smoluchowski equation.

[7] = Particle size determination by DLS; assay type: physicochemical; details: PBS pH 7.4, 25° C.
Protocol: Prior to measuring particle sizes by DLS, the peptide vesicle formulations in PBS were filtered through 0.4 um filter to remove vesicle aggregates. Normalized intensity-time correlation functions g^(2) (q,t)=I(q,t)I(q,0))/I(q,01))^2 were measured over a broad time scale (from 10^−7 s to 10^4 s) using a full multiple tau digital correlator (ALV-5000FAST) with 280 channels spaced quasi-logarithmically. The scattering wavevector q=4πn sin(θ/2)/λo depends on the scattering angle θ (herein we used 0=90°), the laser wavelength λo, and the refractive index of the medium n, We used the 671 nm line from a diode pumped solid state laser which operated at a power of less than 5 mW. The scattered light was collected by a single-mode optical fiber (coherence factor ˜0.95), transferred to an avalanche photo-detector and then to the digital correlator for analysis. Accumulation times were of the order of few seconds due to the strong scattered intensity from the dispersions. To check the reproducibility of the results, several time correlation functions were recorded for each peptide vesicle system dilute suspensions the normalized electric-field time auto-correlation function g^(1)=(E(q,t)E*(q,0))/(E(q,0))^2 is related to the experimentally recorded intensity autocorrelation function g^(2) (q,t)^2 through the Siegert relation g^(2) (q, t)=B[1+f*|g(1)(q,t)|^2 where B describes the long delay time behavior of g^(2) (q, t) and f* represents an instrumental factor obtained experimentally from measurements of a dilute polystyrene/toluene solution. In our case, the optical fiber collection results in f*˜0.95. The electric-field time correlation function g^(1)(t) (for simplicity we drop the q-dependence) was analyzed as a weighted sum of independent exponential contributions, i.e., g^(1)∫L(τ)exp(−t/τ)dτ=∫L(ln τ)exp(−t/τ)d in τ. The distribution of relaxation times L(lnr)=τL(τ) was obtained by inverse Laplace transformation of g<′>(q,t) using the CONTIN algorithm.
The apparent hydrodynamic radii of the suspended particles were determined using the Stokes-Einstein relation Rh=kBT/6πηD, where kB is the Boltzmann constant, η is the viscosity of the solvent, and D the diffusion coefficient of the particle. The latter is determined by D=1/t q^2. where τ is the relaxation time of g(^1) (q,t).

[8] = system: Caco-2 cells
Protocol: Caco-2 cells (passage 40) were grown at 37° C. in tissue culture flasks with Dubelco's Modified Essential Medium (DMEM) supplemented with 10% v/v FBS (Fetal Bovine Serum) 1% nonessential amino acids and 100 ug/mL penicillin and streptomycin in humidified atmosphere containing 5% v/v CO2. The medium was changed every 2-3 days until cells reach 80% confluence and then were subcultured by trypsinization.
The effect of self-assembling peptides on cell viability and cell proliferation was investigated using the MTT colorimetric assay (Sigma). Caco-2 cells were cultured into the wells of 96-well plates using growth medium until a density of 4×10^3 cells/cm^2 was reached. Then we replaced the growth medium with fresh growth medium containing 0.2 or 1.0 mg/mL self-assembling peptides and the cells were incubated for 3, 24 and 48 h at 37° C. Then 10 uL of MTT reagent was added in each of the wells and the plates were incubated for 3 hat 37° C. Then 100 uL of the detergent solution was added and the plates were stored in the dark for 3 h to dissolve the formazan product. The optical density was measured at 600 nm in a Teknika® ELISA Plate spectrophotometer.

[9] = molecular target: P-glycoprotein (Homo sapiens, UniProt P08183); assay: Transepithelial transport of Rhodamine-123 (basolateral to apical); details: control additions: 100 uM Verapamil or 1% SDS
Chain of P-glycoprotein (P08183 whole entry): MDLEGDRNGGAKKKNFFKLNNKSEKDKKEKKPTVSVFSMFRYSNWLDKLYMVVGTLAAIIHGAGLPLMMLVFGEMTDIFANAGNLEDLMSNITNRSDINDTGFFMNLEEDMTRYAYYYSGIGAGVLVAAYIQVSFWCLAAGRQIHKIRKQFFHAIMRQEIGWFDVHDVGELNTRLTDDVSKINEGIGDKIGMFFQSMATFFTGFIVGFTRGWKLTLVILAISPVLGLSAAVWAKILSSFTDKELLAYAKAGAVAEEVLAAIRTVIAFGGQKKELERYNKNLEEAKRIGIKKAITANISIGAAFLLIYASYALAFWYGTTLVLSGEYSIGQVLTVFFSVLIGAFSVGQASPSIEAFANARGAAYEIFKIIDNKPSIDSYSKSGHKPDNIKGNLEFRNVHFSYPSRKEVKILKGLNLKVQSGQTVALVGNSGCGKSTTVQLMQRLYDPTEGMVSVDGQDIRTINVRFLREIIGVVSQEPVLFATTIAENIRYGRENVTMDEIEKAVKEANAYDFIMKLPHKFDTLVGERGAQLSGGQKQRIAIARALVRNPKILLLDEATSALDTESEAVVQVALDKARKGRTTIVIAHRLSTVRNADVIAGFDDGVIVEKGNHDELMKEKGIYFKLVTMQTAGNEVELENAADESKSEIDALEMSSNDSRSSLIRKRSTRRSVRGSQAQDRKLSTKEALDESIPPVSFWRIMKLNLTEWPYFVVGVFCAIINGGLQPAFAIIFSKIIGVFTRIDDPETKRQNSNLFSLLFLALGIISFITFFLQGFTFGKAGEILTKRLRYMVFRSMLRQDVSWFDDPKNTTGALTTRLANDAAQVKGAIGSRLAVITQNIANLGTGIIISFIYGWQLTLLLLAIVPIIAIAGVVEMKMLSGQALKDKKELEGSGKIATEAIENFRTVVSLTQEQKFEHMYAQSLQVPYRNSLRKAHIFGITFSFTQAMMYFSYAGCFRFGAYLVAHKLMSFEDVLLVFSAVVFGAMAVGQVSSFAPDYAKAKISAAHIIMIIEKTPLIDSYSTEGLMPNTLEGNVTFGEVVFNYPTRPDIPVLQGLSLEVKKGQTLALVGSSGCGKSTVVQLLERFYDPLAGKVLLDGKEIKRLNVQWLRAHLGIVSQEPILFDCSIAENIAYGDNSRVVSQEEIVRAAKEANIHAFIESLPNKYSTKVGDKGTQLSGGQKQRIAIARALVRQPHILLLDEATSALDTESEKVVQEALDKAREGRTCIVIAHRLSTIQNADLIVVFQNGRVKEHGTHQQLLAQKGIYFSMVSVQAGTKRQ
Protocol: C18 150 mm×46 mm, 3.5 um analytical column, flow rate 0.85 ml/min, detector was set at 500 nm) [15]. The mobile phase, which consisted of acetonitrile, 20 mM sodium acetate buffer pH 4.0, and water containing 1.5 mM. […] Before the end of the experiment, the transepithelial resistance was measured to ensure that the cell monolayer integrity had not been affected by the experimental conditions.

## KAAAAAA-NH2 [KA6-CONH2]
[1]
  Vesicle diameter, AFM analysis: 169 ± 29 nm
[2]; PBS pH 7.4
  Nile red emission maxima: 623 nm
[3]; listed as KA6-CONH
  CF retention / release (in words): did not retain CF
[4]; 0.2 mg/ml peptide
  Enhancement ratio (FITC-dextran): 4.0
[4]; 1.0 mg/ml peptide
  Enhancement ratio (FITC-dextran): 5.1
[4]
  enhancement of FITC-dextran transport compared with the control: 5.1 fold
[5]
  CMC in PBS: 0.07 mg/mL
[6]
  ζ-potential: 12.4±0.9 mV
[7]
  Vesicle diameter, DLS analysis: 164 (65-350) nm
  average diameter of second DLS peak (probably aggregates of individual vesicles): 906 nm

## DAAAAAA-OH [DA6-COOH]
[1]
  number of nanovesicles per necklace: 11±2 and 11
  Beads diameter, AFM analysis (necklace-like formations): 159±26 nm
  Vesicle diameter, AFM analysis: 43 ± 11 nm
  Clusters diameter, AFM analysis: 135±24 nm
[1]; listed as DA6-COON
  Vesicle diameter, AFM analysis: 43±11 nm
[2]; PBS pH 7.4
  Nile red emission maxima: 647 nm
[3]
  CF retention / release (in words): Fast CF release; also recorded: did not retain CF
[4]; 0.2 mg/ml peptide
  Enhancement ratio (FITC-dextran): 5.0
[4]; 1.0 mg/ml peptide
  Enhancement ratio (FITC-dextran): 6.6
[4]
  enhancement of FITC-dextran transport compared with the control: 6.6 fold
[5]
  CMC in PBS: 0.12 mg/mL
[6]
  ζ-potential: −14.0±1.1 mV
[7]
  Vesicle diameter, DLS analysis: 137 (64-725) nm

## acetyl-AAAAAAD-COOH (Ac-AAAAAAD-OH) [Ac-A6D-COOH, amphiphilic surfactant-like self-assembling peptide forming nanovesicles]
[1]
  number of nanovesicles per necklace: 23±3 and 23
  Beads diameter, AFM analysis (necklace-like formations): 200 ± 11 nm
  Vesicle diameter, AFM analysis: 28 ± 9 nm
  Clusters diameter, AFM analysis: 101 ± 11 nm
[1]; listed as ac-A6D-COOH
  Beads diameter, AFM analysis (necklace-like formations): 200±11 nm
  Vesicle diameter, AFM analysis: 28±9 nm and ~43 nm
  Clusters diameter, AFM analysis: 101±11 nm
[2]; PBS pH 7.4
  Nile red emission maxima: 626 nm
[2]
  release kinetics of Nile red through peptide nanovesicles (in words): release was slower
  retention of Nile red molecules (in words): to a lesser extent
[3]
  CF retention / release (in words): only a small CF retention efficiency
[3]; after 7 h, PBS pH 7.4, 20° C.
  initially loaded CF retained by vesicles: 13%
[4]; 0.2 mg/ml peptide
  Papp of FITC-dextran 4.4 kDa: 1.82 ± 0.24 10^-5 cm/s
  Enhancement ratio (FITC-dextran): 6.7
[4]; 1.0 mg/ml peptide
  Papp of FITC-dextran 4.4 kDa: 2.13 ± 0.16 10^-5 cm/s
  Enhancement ratio (FITC-dextran): 7.9
[4]
  enhancement of FITC-dextran transport compared with the control: 7.9 fold
[5]
  CMC in PBS: 0.05 mg/mL
[6]
  ζ-potential: −15.4±1.1 mV
[8]
  Caco-2 cell viability: exceeding 100%
[7]
  Vesicle diameter, DLS analysis: 97 (30-320) nm
[7]; listed as ac-A6D-COOH
  Vesicle diameter, DLS analysis: 97 nm

## acetyl-AAAAAAK-CONH2 (Ac-AAAAAAK-NH2) [Ac-A6K-CONH2, amphiphilic surfactant-like self-assembling peptide forming nanovesicles]
[1]
  Vesicle diameter, AFM analysis: 126 ± 23 nm
[1]; listed as ac-A6K-CONH2
  Vesicle diameter, AFM analysis: ~126 nm
[2]; PBS pH 7.4
  Nile red emission maxima: 631 nm
  Nile red fluorescence yield compared to other peptide nanovesicle systems: significantly higher
[2]
  release kinetics of Nile red through peptide nanovesicles (in words): release was slower
  retention of Nile red molecules (in words): retain higher numbers of Nile red molecules
[3]
  CF retention / release (in words): significantly retained the negatively charged CF
[3]; after 7 h, PBS pH 7.4, 20° C.
  CF release through peptide nanovesicles: approximately 50%
[4]; 0.2 mg/ml peptide
  Papp of FITC-dextran 4.4 kDa: 1.20 ± 0.36 10^-5 cm/s
  Enhancement ratio (FITC-dextran): 4.4
[4]; 1.0 mg/ml peptide
  Papp of FITC-dextran 4.4 kDa: 1.51 ± 0.37 10^-5 cm/s
  Enhancement ratio (FITC-dextran): 5.7
[4]
  enhancement of FITC-dextran transport compared with the control: 5.7 fold
[5]
  CMC in PBS: 0.16 mg/mL
[6]
  ζ-potential: 8.5±0.3 mV
[8]
  Caco-2 cell viability: exceeding 100%
[7]
  Vesicle diameter, DLS analysis: 122 (30-173) nm
[7]; listed as ac-A6K-CONH2
  Vesicle diameter, DLS analysis: 122 nm

## CCCCCCCCCCCCOS(=O)(=O)[O-].[Na+] [SDS 1%]
[9]
  Enhancement ratio (Rhodamine-123): 3.0
[9]; basolateral to apical
  Papp of Rhodamine-123: 3.28 ± 0.02 10^-5 cm/s
